Patent US6420524

What was measured:
Experiment in all cases: cell_activity
[1] = target: TnsA+TnsB+TnsC+TnsD (Escherichia coli (Tn7)?) (UniProt P13988+P13989+P05846+A0A0H2XLP6); conditions: lambda hop
[2] = system: TnsA+TnsB+TnsC S401YΔ402 TnsC S401Y, Δ402 (Escherichia coli (Tn7)?); conditions: lambda hop; inhibited somewhat by TnsD
[3] = system: TnsA+TnsB+TnsC A225V TnsC A225V (Escherichia coli (Tn7)?)
[4] = system: TnsA+TnsB+TnsC+TnsE (Escherichia coli (Tn7)?); conditions: lambda hop
[5] = target: TnsA+TnsB+TnsC (wild type) (Escherichia coli (Tn7)?) (UniProt P13988+P13989+P05846); conditions: mating-out assay
[6] = system: TnsA+TnsB+TnsC+TnsD+TnsE (Escherichia coli (Tn7)?); conditions: mating-out assay; +/- 1.1e-4

Substance | activity (KmR colonies/pfu) [1] | relative transposition activity (fold vs TnsABCwt+E) [2] | relative transposition activity (fold vs TnsABCwt+E) ([3]; lambda hop, stimulated 500-fold by TnsD+attTn7) | activity (KmR colonies/pfu) [4] | activity (transposition frequency) [5] | activity (transposition frequency) ([3]; mating-out assay, +/- 8.1e-6) | activity (transposition frequency) [6]
E. coli chromosome target (miniTn7-KmR from lambda KK1) | 0.00018 | 50 | 8 | 2.2e-07 | – | – | –
pOX-G conjugable target plasmid | – | – | – | – | < 1e-07 | 8.8e-06 | 0.00055
